Assays:
HLA-A*03:19 = experiment: IEDB peptide-MHC binding, purified MHC/competitive/fluorescence; filed as Kd, often an IC50 or EC50 that approximates it; ≥ and ≤ were set here for values at or beyond the usual limits of such assays
HLA-A*32:15 = experiment: as above; conditions: source organism: Mus musculus
HLA-A*68:23 = experiment: as above; conditions: source organism: Mus musculus
HLA-B*15:42 = experiment: as above
HLA-B*45:06 = experiment: as above
HLA-B*83:01 = experiment: as above
HLA-C*06:02 [1] = experiment: as above
HLA-A*02:01 [2] = experiment: IEDB peptide-MHC binding, purified MHC/direct/fluorescence; filed as Kd, often an IC50 or EC50 that approximates it; ≥ and ≤ were set here for values at or beyond the usual limits of such assays; conditions: source organism: Giardia lamblia ATCC 50803
HLA-A*02:12 [3] = experiment: as above; conditions: source organism: Giardia lamblia ATCC 50803
HLA-A*02:16 [4] = experiment: as above; conditions: source organism: Giardia lamblia ATCC 50803
HLA-A*69:01 [5] = experiment: as above; conditions: source organism: Giardia lamblia ATCC 50803
HLA-A*02:50 = experiment: IEDB peptide-MHC binding, purified MHC/competitive/fluorescence; filed as Kd, often an IC50 or EC50 that approximates it; ≥ and ≤ were set here for values at or beyond the usual limits of such assays
HLA-A*80:01 = experiment: IEDB peptide-MHC binding, purified MHC/direct/fluorescence; filed as Kd, often an IC50 or EC50 that approximates it; ≥ and ≤ were set here for values at or beyond the usual limits of such assays
HLA-A*01:01 = experiment: as above
HLA-B*58:01 = experiment: IEDB peptide-MHC binding, purified MHC/competitive/fluorescence; filed as Kd, often an IC50 or EC50 that approximates it; ≥ and ≤ were set here for values at or beyond the usual limits of such assays
HLA-C*07:02 = experiment: IEDB peptide-MHC binding, purified MHC/direct/fluorescence; filed as Kd, often an IC50 or EC50 that approximates it; ≥ and ≤ were set here for values at or beyond the usual limits of such assays; conditions: source organism: Escherichia coli O157:H7 str. EDL933
HLA-C*14:02 = experiment: as above
HLA-C*15:02 = experiment: as above
HLA-A*02:01 [6] = experiment: IEDB peptide-MHC binding, purified MHC/competitive/fluorescence; filed as Kd, often an IC50 or EC50 that approximates it; ≥ and ≤ were set here for values at or beyond the usual limits of such assays
HLA-A*31:01 = experiment: as above
HLA-A*32:07 = experiment: as above
HLA-B*27:20 = experiment: as above
HLA-B*39:01 = experiment: as above
HLA-B*40:13 = experiment: as above; conditions: source organism: Escherichia coli O157:H7 str. EDL933
HLA-B*27:05 = experiment: as above
HLA-C*05:01 = experiment: IEDB peptide-MHC binding, purified MHC/direct/fluorescence; filed as Kd, often an IC50 or EC50 that approximates it; ≥ and ≤ were set here for values at or beyond the usual limits of such assays; conditions: source organism: Yersinia pestis Nepal516
HLA-C*06:02 [7] = experiment: as above; conditions: source organism: Yersinia pestis Nepal516
HLA-A*02:03 = experiment: IEDB peptide-MHC binding, purified MHC/competitive/fluorescence; filed as Kd, often an IC50 or EC50 that approximates it; ≥ and ≤ were set here for values at or beyond the usual limits of such assays; conditions: source organism: Encephalitozoon cuniculi GB-M1
HLA-A*02:06 = experiment: as above; conditions: source organism: Encephalitozoon cuniculi GB-M1
HLA-A*02:11 = experiment: as above; conditions: source organism: Encephalitozoon cuniculi GB-M1
HLA-A*02:12 [8] = experiment: as above; conditions: source organism: Encephalitozoon cuniculi GB-M1
HLA-A*02:16 [9] = experiment: as above; conditions: source organism: Encephalitozoon cuniculi GB-M1
HLA-A*02:19 = experiment: as above; conditions: source organism: Encephalitozoon cuniculi GB-M1
HLA-A*69:01 [10] = experiment: as above; conditions: source organism: Encephalitozoon cuniculi GB-M1
[11] = source organism: Mammarenavirus lassaense
[12] = source organism: Camelpox virus M-96
[13] = source organism: Escherichia coli O157:H7 str. EDL933
[14] = source organism: Yersinia pestis Nepal516
[15] = source organism: Encephalitozoon cuniculi GB-M1

Sequence: GVPKTHLEL
- Kd (HLA-A*03:19; source organism: Mus musculus): 3230 nM
- Kd (HLA-A*32:15): ≥ 20000 nM
- Kd (HLA-A*68:23): 23.1 nM
- Kd (HLA-B*15:42; source organism: Mus musculus): ≥ 5000 nM
- Kd (HLA-B*45:06; source organism: Mus musculus): ≥ 5000 nM
- Kd (HLA-B*83:01; source organism: Mus musculus): ≥ 5000 nM
- Kd (HLA-C*06:02 [1]; source organism: Mus musculus): 1350 nM

Sequence: GMNPYHLAA
- Kd (HLA-A*02:01 [2]): 4380 nM
- Kd (HLA-A*02:12 [3]): 296 nM
- Kd (HLA-A*02:16 [4]): 65 nM
- Kd (HLA-A*69:01 [5]): ≥ 20000 nM
- Kd (HLA-A*02:50; source organism: Giardia lamblia ATCC 50803): 12.7 nM

Sequence: NRDGDSYYY
- Kd (HLA-A*80:01; source organism: Yellow fever virus): 478 nM

Sequence: ALTDLGLIY
- Kd (HLA-A*01:01; [11]): 34.7 nM
- Kd (HLA-A*80:01; [11]): 1.8 nM

Sequence: VSLGAISFW
- Kd (HLA-B*58:01; source organism: Influenza A virus (A/Leningrad/1954/1(H1N1))): ≤ 1 nM

Sequence: MTDLSKKGY
- Kd (HLA-A*01:01; [12]): 2.8 nM
- Kd (HLA-A*80:01; [12]): ≥ 20000 nM

Sequence: RMMGVKYLM
- Kd (HLA-C*07:02): 859 nM
- Kd (HLA-C*14:02; [13]): 2340 nM
- Kd (HLA-C*15:02; [13]): 2080 nM
- Kd (HLA-A*02:01 [6]; [13]): 2 nM
- Kd (HLA-A*03:19; [13]): 886 nM
- Kd (HLA-A*31:01; [13]): 2.1 nM
- Kd (HLA-A*32:07; [13]): 1.1 nM
- Kd (HLA-B*15:42; [13]): ≥ 5000 nM
- Kd (HLA-B*27:20; [13]): 34 nM
- Kd (HLA-B*39:01; [13]): 2190 nM
- Kd (HLA-B*40:13): 3.2 nM
- Kd (HLA-B*45:06; [13]): ≥ 5000 nM
- Kd (HLA-B*58:01; [13]): 16.8 nM
- Kd (HLA-B*83:01; [13]): ≥ 5000 nM
- Kd (HLA-C*06:02 [1]; [13]): 798 nM

Sequence: GKVERMVQY
- Kd (HLA-B*27:05; source organism: Escherichia coli 536): ≥ 20000 nM

Sequence: RAMRMVYYL
- Kd (HLA-C*05:01): 124 nM
- Kd (HLA-C*06:02 [7]): 798 nM
- Kd (HLA-C*14:02; [14]): 960 nM
- Kd (HLA-C*15:02; [14]): 34 nM
- Kd (HLA-A*02:01 [6]; [14]): 0.8 nM
- Kd (HLA-A*03:19; [14]): 206 nM
- Kd (HLA-A*31:01; [14]): 4 nM
- Kd (HLA-A*32:07; [14]): 77.6 nM
- Kd (HLA-B*15:42; [14]): ≥ 5000 nM
- Kd (HLA-B*27:05; [14]): 157 nM
- Kd (HLA-B*27:20; [14]): 14 nM
- Kd (HLA-B*39:01; [14]): 421 nM
- Kd (HLA-B*45:06; [14]): ≥ 5000 nM
- Kd (HLA-B*83:01; [14]): ≥ 5000 nM

Sequence: ALEEGRKYV
- Kd (HLA-A*02:01 [6]; [15]): 654 nM
- Kd (HLA-A*02:03): 29 nM
- Kd (HLA-A*02:06): 8.7 nM
- Kd (HLA-A*02:11): 2.9 nM
- Kd (HLA-A*02:12 [8]): 42.5 nM
- Kd (HLA-A*02:16 [9]): 6.8 nM
- Kd (HLA-A*02:19): 437 nM
- Kd (HLA-A*02:50; [15]): 12.3 nM
- Kd (HLA-A*69:01 [10]): 5700 nM

From the Immune Epitope Database (IEDB)
